The text below walks through data of US11071783 (DUKE UNIVERSITY, dated 2021).

Experiment [1] deals with gp41 of HIV-1 isolate B.BG1168 Env (HIV-1). The experiment can be described thus: cell-based or functional assay.
The target of experiment [2] is T1, STUB1 (STIP1 homology and U-box containing protein 1) (human, UniProt Q9UNE7 1-303).
T1 construct: also called E3 ubiquitin ligase STIP1 Homology and U-Box Containing Protein 1
T1 sequence (looked up): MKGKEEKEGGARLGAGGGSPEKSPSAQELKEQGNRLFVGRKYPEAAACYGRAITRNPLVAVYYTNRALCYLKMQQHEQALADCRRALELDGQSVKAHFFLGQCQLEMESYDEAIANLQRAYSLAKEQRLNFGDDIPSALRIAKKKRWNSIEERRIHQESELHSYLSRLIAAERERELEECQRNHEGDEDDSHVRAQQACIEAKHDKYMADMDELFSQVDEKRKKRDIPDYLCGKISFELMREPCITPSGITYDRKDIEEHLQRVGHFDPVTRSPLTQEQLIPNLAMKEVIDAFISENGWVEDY
Kind of experiment: protein microarray of >9400 human proteins.

On to 4E10 (antibody), for which the lifetime of neutralization (t1/2), post-attachment TZM-bl assay with B.BG1168 in experiment [1] stood at 28.2 min. Still for that read-out and setting: then 10E8 (antibody), with 25.6 min.

B1: DH511.2 (antibody, V domains shown)
VH: QVQLVQSGGGLVKPGGSLTLSCSASGFFFDNSWMGWVRQAPGKGLEWVGRIRRLKDGATGEYGAAVKDRFTISRDDSRNMLYLHMRTLKTEDSGTYYCTMDEGTPVTRFLEWGYFYYYMAVWGRGTTVIVSS
VL: DIVMTQSPSSVSASVGDRVTITCRASQNIRDYLNWYQHKPGGSPRLLIYAASTLQTGVPSRFSGSGSGNLFTLTITNLQPEDFATYYCQENYNTIPSLSFGQGTKVDIR
notes: also called DH512; Ab510049
On to B1, for which, in experiment [2], the binding result is “binds”.
